The data set in a line: label from the status in PepcDB records.
Take “MTIAILPARLANQIAAGEVVERPASVIKELIENSLDAGATSIHIDVDKGGIKKIKITDNGHGIVKEELTLALSRHATSKIKSLNDLEAIGSLGFRGEALASISSVARLTLTSKPQSQATAWQAVAEGRDMSVNIKPAAHPDGTSIEVLDLFFNTPARRKFLRTEKTEFNHIDEVVRRIALAHFEVSFSLTHNGNTVRQYRMASTHAQCIKRVAMVCGPKFIEHAVEVDCPHDNMTLSGWLAKPSFSRSQNDLCYSYVNGRMMRDKLINHAIRQAYADLLPPDTYPAFVLFLQLDHREVDVNVHPSKHEVRFHQSRYVHDFIYSVCHKALTSALAGEELFTTADSDLALVPEQSYSSLGANDRQGSHSSNTPTLNYPSADYIRPLQHVNDASNSQSTSSYSGYGQQHKTNAISKIAASNYQALMTPDKGSSAQVQNTSGSDQASAQKHETTTLQNSTDQSAFLSVHQPGYALYKTENGVRVLSLFKLAKSTYGKLVEQSWQNKTEQSDCPVECLVSQPLLLPVILSLSEQQLSFVLAEQEILSNAGIVFIQQHKNKIQIRQFPALLREQDVSNALIIIIEELIEKRSFTEGEALCETNLHQSIGLAMVLAEYDETQADILLRLTKKLFHEQLSQQLLLNSIPLDLTSHIKTLF”: the protein production result is “failed”.
For the sequence “SSTFSASDFNSERYSSSRPSYPSDFYKMIDEYHDGERKLLVDVGCGPGTATLQMAQELKPFEQIIGSDLSATMIKTAEVIKEGSPDTYKNVSFKISSSDDFKFLGADSVDKQKIDMITAVECAHWFDFEKFQRSAYANLRKDGTIAIWGYADPIFPDYPEFDDLMIEVPYGKQGLGPYWEQPGRSRLRNMLKDSHLDPELFHDIQVSYFCAEDVRDKVKLHQHTKKPLLIRKQVTLVEFADYVRTWSAYHQWKQDPKNKDKEDVADWFIKESLRRRPELSTNTKIEVVWNTFYKLGKRV”, the protein production entry is recorded as “not failed”.
Next, “MGNNNSTKESTHDNHSDSSTHEEMDHSGSADVPEGLQESKNPKYKVGSQVIINTSHMKGMKGAEATVTGAYDTTAYVVSYTPTNGGQRVDHHKWVIQEEIKDAGDKTLQPGDQVILEASHMKGMKGATAEIDSAEKTTVYMVDYTSTTSGEKVKNHKWVTEDELSAKLEHHHHHH”: “not failed”; “MASLCSARFLPSPSLDILSTKTKISSDSRSLGCSSSRVFAFSSVHRSSSRRNRNQLQVVSMAPEEEKLTRRNPLDFPIEWERPKPGRRPDIFPKFSPMKTPLPPPMPYDPPEEDEEEEEKKEEEEENPDQEEEEQPEKQQ”: “failed”.
Next, “MGHHKAMPYADVAAFIIELRKREAVAATALEFTILTAARSGETLGAKWHEIDWKDKIWTVPAERMKAAREHRVPLSSRTITILKKLAEFGSDENSFVFPGQKPGKPLSVMAMDMVLRRMEVDVTVHGFRSSFRDWCGEVSNFPRDVAEAALAHVVGDKTERAYRRGDALEKRRKLMAAWEKFCIAEIKKNPLEHHHHHH”: “failed”; “MRREALKNAVLKIMTEKMELKNVTHLEETMRLNQDLYIDSVMMLQLIVYIEMDVKLCVPEDEVDPKAFLTVGSLLDFMEELQPLQDVNVNN”: “failed”; “MSEAVPSVVAIDIGTHKVSVLIGKVHAPDNIQVIGMATARNRGMNKGKIVSLDKVISAIKNAVAEAENMAECRVHTAWVSIPTTELQSFYASGRIPIAKADHTITTNEVVRALELAKASHVTPDYYLASAVPLGFELDDSSEWVQNPINMSAHSMTGHYQLMMMPISIMQNLDRAMKGASIGVEKMVVSCLATAEASLLKDEKEYGVCLLDIGAGTTNIAVYLDGRLALARTLQRGGENVTRDIAAVLQTTTEEAERIKILHGCVDLSAIKPDQMIQVQAIDGPQTISRIELAEIIIARYEEILGQVRDELERSGAIHGLYHGVVLTGDACQIEGMISLARRILGVSAHLGNPPLQVYADDQHQASIRRSMYATAAGLLMFSQSELQDTVEDSEEASQRSLWNRVANGWNTLNTKLKAIF”: “failed”.
For “MCTGTKSFFLLQRFKLKEDVTMEQKPVLDVNEVPKPGKWLFLSIQHLFAMFGSTVLVPFLTGLNPSVALISSGLGTLAFLLITKGQVPAYLGSSFAFIAPIITAKTAGGPGAAMLGGLLAGLVYILISLGIKKSGSEWIMKLLPPIVVGPVVMVIGLALAHTAVNMAMNGADGKYSFTHFSVALVTLAITIICSIFGRGFFSIIPVLLGIIGGYIFAYFQGLVDLKPVAEAKWFVVPDFTVPFVTYTPEFSWKIVLLMVPVALVTISEHIGHQIVLGNVIKRDLIEKPGLHRSIFGDGVATLIASLIGGPPNTTYGENIGVLAITRAYSVYLFIGSAVFAIMFGFIGKISALIHSIPTPVMGGVSILLFGVIASSGLRMMVDDKTDLSDKRNLMIASVILVIGIGGAVLHVGESFQVEGMALAAIVGVLLNLLLPETKQIKQSKQIAS”, the protein production result is reported as “failed”.
Regarding “MRVMAFVQARMGSTRLPGKSLMPVWNGMGVLEMTLRRALRARTLSGVVLCTSTDPACDALETLASGLGVQAFRGPEDDVLTRYALATERFEPDAVVRICADSPLVCPEGIDALVAFFRDEGLDYAAHAMDGTGLPDGLGCEVFTAAALAQAHAEATAPEDREHVSLFIRHRPERFRQATLAADAALRAPGVSLDVDTQDDLDALRRFIMALPPSEGPFWSADAIAPLARGLHTPPQGTSMDIASDDYHDFFIRDGKLIGEFEQMYRKSRHAPWHQDEACDKWFNKVSAALVGHALDDPSVRTVFEVGSGLGYFLSQFAGEGRTLTGTDVSATAVEKARALFPGISFEVDDIRFEGRRGPYDLCLMQAVCWCIFPHMDDVVRNVTATVRPGGYLFLGECFQPLDGPFAGKDVIPTPDALIGHFSHAFDTVADVRVTRGEMGGGPIIYWLGRRRGLEHHHHHH”, the protein production entry is recorded as “not failed”.
“MSSDVQKGDNLETPGARDLLLQTASNIMREGDVVDISLSELSLRSGLNSALVKYYFGNKAGLLKALLDRDMENIVKSVDALLAKDDMSPEAKLRRHISKCIDTYYDYPYLNRLLMRLVRDSDEAEAKRIADQYLLPLHRAYNRFIGEGVKAGVFRPINPQLFYFTVTGAADRFFSARLVLKHCFDQDTLTEQLRDSYREHTVDFIMAGILAH”: the protein production entry is reported as “not failed”.
Next, “MGHHHHHHSHMKEDQKNKIPEDILKQLLSVDPETVYASGYASWQEGDYSRAVIDFSWLVMAQPWSWRAHIALAGTWMMLKEYTTAINFYGHALMLDASHPEPVYQTGVCLKMMGEPGLAREAFQTAIKMSYADASWSEIRQNAQKMVDTLIA”: “failed”; “MLLIFFKKYEQSDIMRKLFLLSILMIGVIVAFAGCVEESKTTTQLQQTTQSESQKAETQPKLGVNVVRYAETFKLYPHWDEGYCVVADSVGNKFVLVEGNAKAPNISDGKIIKVPVKRIVTDFYCPIISAADILNAYHHTIVGAPKYAVEKSPKLKELFDEGKVVDIGSPSKGVNYELIVNLTPDIVFLGDWKSEDVVEEKLKELGVTVSRFYTYQEPTYMGRVEWIKFAAAFWGSNAYKKADKWFENVVKVRENILKKVQNVTNEPTVVIFSWSKTKNMPGIYGNDSYYSKMIAEFKGKNVFDDYNRGYQYVDKETFYERAMNADVVILIWFYGDVKTKEDLLKINPNFAEFKAFKTGRFYVSHPDYYVWEARDPAGYMMDFAKMIHPELFGGDDDLKYYYKIK”: “failed”; “MNVIRLKEDKFREALRLSEYAFQYKVDEDRLQQQITKMKESHEVYGIMEGENLAAKLHLIPFHIYIGKEKFKMGGVAGVATYPEYRRSGYVKELLQHSLQTMKKDGYTVSMLHPFAVSFYRKYGWELCANLLVCHMTKSDLVMKKQVNGTVKRFNKESHPEEVEKLYETFAELFSGMLVRNEKWWLQAVYDDLTLAIYYDENQTAAGYMLYKIENYKMTVEEFVPLHNEARNGLWNFICQHDSMIKDLEMTVSENEPLLYTLQEPRVKTEIKPYFMGRIVDVEQFLKQYELNWNNVQQEVILHITDSFAQWNNITVRIANHEITIIEEPIDKGIKLDINALSTILFGYRRPLELNELELISGSEEEIRAFESVVPVRKPFIYDFF”: “not failed”.
Next, “MILVFLDNMASIKDLNLIDEINDSSNLKLINDRLKLLFWTKNPEITDEENKKKYLDFLNEYWDTLRAYGAGDLELFPDKINYLTLILAANSKNHNIYIKKLAEKYAEKIPIEDGDSKINIWDFIDVAANSRNNDLHLERMILEGDTVLLNQKNQSIYNFEKIRLKLKNYVEKVRNAEMPKEIKDLLVKKSEEAFEGINIGYNIESGIKVSTKEYSGEIPEDWHPPCMREILNDILSGGSPSHYARRSFVVYRFVSQFDPNLRPIEEGIITNRSAQDIATEEQIERFLDEIINIFKSVGDFDVEKTKYYISHNIGYKVANHITHCEYCKNWRDDGGKGLGYYCRPDSTCSRKDIIHPLDYLCHNINRHVKKSELEHHHHHH”: “failed”.
Next, “MHPNIATLLSANLGESRTRHLLSLVSVPDGLPSDAEGRATRAEIAQALNMVLFAGILDRVPTGRAYTDDVAATGGKVVFDHGALRTVKWRDNGALPEGEAAFTRILRPLGYRLNGNYPLDRISMTGRSYAHADAPEGIAQFFVSEFHPERFSDAFREAVGRVTGNSADPLTPRAQTLLWQLDRDGVLTVADGAELIGLLVPCFERQHGVPRLADYETLLRESAEMAWIATEGNAFNHATDRVDDVFGLSEQQKALGRPMKDKVEVSGSGRVKQTAFRADTVRRQFIGAQGETVERDVPGSFYEFITRDRFADAPAASPRVDLGFDAGNAQGIFKMTAAV”: “not failed”; “METLHPFSHLPISDHRFVVQEMVSLHSSSSGSWTKEENKMFERALAIYAEDSPDRWFKVASMIPGKTVFDVMKQYSKLEEDVFDIEAGRVPIPGYPAASSPLGFDTDMCRKRPSGARGSDQDRKKGVPWTEEEHRRFLLGLLKYGKGDWRNISRNFVVSKTPTQVASHAQKYYQRQLSGAKDKRRPSIHDITTGNLLNANLNRSFSDHRDILPDLGFIDKDDTEEGVIFMGQNLSSENLFSPSPTSFEAAINFAGENVFSAGA”: “failed”.
For “MQDTPQRGQRSKVRWLVAGLMWAAIAINYIDRTVLSAAAPHIQKEFHLSAVEMGVVMSAFFWSYALLQLPAGILADRFGQKKVLGFAVLWWSLATAVTGLATGFKSLVGLRVALGVGEAGAYPSNAGITSRWFPKQERATVAAIFDSGSKLGSAIALPLIAWLLVTFDWKITFTVAGSLGIVWCVVWALVFRDSPAEHEGVNAAELAHIQKGLPPARGADAPAMPWTKLLTHRNVWAMCIGFFMINYNSYFFITWLPTYLVKERGMGLMEMGFMASLPLFVSMFVEVFAGWASDRVYASGRLSLTATRKLFLVIGLVMASSIGLAAFAQSAVVAVILLCIAKSGTTVAASQVWALPADVAPGNTVSMVAGLQNSVSNMGGVVGPIVTGAIVGATGSFIPALVFSAALIGLAILNYLFLLGKVEPIAFEPNPATLNPNSHGRSNADARA”, the protein production entry is “failed”.
Turning to “MIEFVYPHTQLVAGVDEVGRGPLVGAVVTAAVILDPARPIAGLNDSKKLSEKRRLALYEEIKEKALSWSLGRAEPHEIDELNILHATMLAMQRAVAGLHIAPEYVLIDGNRCPKLPMPAMAVVKGDSRVPEISAASILAKVTRDAEMAALDIVFPQYGFAQHKGYPTAFHLEKLAEHGATEHHRRSFGPVKRALGLAS”, the protein production entry is on record as “not failed”.
Next, “MKTFIIGISGVTNSGKTTLAKNLQKHLPNCSVISQDDFFKPESEIETDKNGFLQYDVLEALNMEKMMSAISCWMESARHSVVSTDQESAEEIPILIIEGFLLFNYKPLDTIWNRSYFLTIPYEECKRRRSTRVYQPPDSPGYFDGHVWPMYLKYRQEMQDITWEVVYLDGTKSEEDLFLQVYEDLIQELAKQKCLQVTA”: “failed”; “MNQEKLLALMMDLHQDGARQGPGSETETLRALELTRIDPLAKLQVADIGCGTGASTLVLASKLQNAQITAIDIFPEFLDVLSTRAKVMGYSEKIETLTESMDKLSFADESLDLIWSEGAIYNLGFAQGIECWKPMLKTGGVLAVSEITWLNPLPPEEIRQHWNTEYPEIATASEKIAILEHGGYDLIGYFILPSTNWLDSYYTPVEERIHDFLKRHRGDLEAEELIKMERREMDLYSRFKNWFSYGFYVARKR”: “failed”.

For the origin of these results see a protein production outcome set (Wang et al. 2014).
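Also: failed if final PepcDB status was selected cloned or expressed and not failed if soluble or beyond.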
